Data from paper PMC11898079, “Single-Molecule Imaging of Wood Xylans on Surfaces and Their Interaction with GH11 Xylanase” (Biomacromolecules, 2025).
“And” between values parts separate entries of the source, which are not always exact repeats. Equal entries are not always repeated.

Target: the molecule itself
Test: high-speed atomic force microscopy (HS-AFM); xylanase alone on a clean mica surface, tapping mode, 100 mM sodium phosphate buffer pH 6; 2 uL of 12.5 ug/mL xylanase added into 80 uL buffer during imaging; self-association seen as transient dimers and trimers of single molecules on the surface

B1: Endo-1,4-β-D-xylanase from Neocallimastix patriciarum (GH11) (enzyme)
chain: AEFQSFCSSASHSGQSVKVTGNKVGTIGGVGYELWADSGNNSATFYSDGSFSCTFQNAGDYLCRSGLSFDSTKTPSQIGRMKADFKLVKQNSSNVGYSYVGVYGWTRSPLVEYYIVDNWLSPFPPGDWVGNKKHGSFTIDGAQYTVYENTRTGPSIDGDTTFNQYFSIRQQARDCGTIDISAHFDQWEKLGMTMGKLHEAKVLGEAGNVNGGASGTADFPYAKVYIGD
notes: Endo-1,4-β-D-xylanase, glycoside hydrolase family 11, Neocallimastix patriciarum; printed Mw 25,800 g/mol; Commercial enzyme; also called GH11 xylanase; GH11 endoxylanase; source: bought: Megazyme Ltd
stoichiometry N: 2 and 3
